From US20250235516A1 (UNIVERSITY OF SOUTH FLORIDA, published 2025)

Key:
neutrophil elastase = target: T1, neutrophil elastase (human, UniProt P08246 30-247, limits assumed); experiment: cell-based or functional assay
T1 sequence (looked up): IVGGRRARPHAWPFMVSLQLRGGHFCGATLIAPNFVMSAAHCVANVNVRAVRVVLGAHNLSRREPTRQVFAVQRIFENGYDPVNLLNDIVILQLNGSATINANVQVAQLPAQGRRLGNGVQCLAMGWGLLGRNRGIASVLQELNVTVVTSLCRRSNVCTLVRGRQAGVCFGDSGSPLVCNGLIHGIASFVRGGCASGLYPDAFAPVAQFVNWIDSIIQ

[1] = target: Matrix metalloproteinase-2 (UniProt P08253 110-465, limits assumed); experiment: cell-based or functional assay
Sequence of Matrix metalloproteinase-2 (P08253 110-465 limits assumed): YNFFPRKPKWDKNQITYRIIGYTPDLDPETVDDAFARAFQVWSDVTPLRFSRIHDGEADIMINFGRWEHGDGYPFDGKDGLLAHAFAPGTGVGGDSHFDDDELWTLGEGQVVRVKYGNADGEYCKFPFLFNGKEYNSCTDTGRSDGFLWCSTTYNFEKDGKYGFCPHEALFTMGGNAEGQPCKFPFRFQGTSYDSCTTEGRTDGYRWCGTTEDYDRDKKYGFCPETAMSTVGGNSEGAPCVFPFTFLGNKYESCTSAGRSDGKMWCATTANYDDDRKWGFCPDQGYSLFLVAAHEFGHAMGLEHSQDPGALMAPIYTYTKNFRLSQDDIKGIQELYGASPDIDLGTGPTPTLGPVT

B1: APP-IP-L10FLAG (designed binder)
chain: ISYGNDALMPVPGVGVPGVGVPGLGVPGVGVPGVGVPGVGVPGVGVPGLGVPGVGVPGVGVPGVGVPGVGVPGLGVPGVGVPGVGVPGVGVPGVGVPGLGVPGVGVPGVGVPGVGVPGVGVPGLGVPGVGVPGVGVPGVGVPGVGVPGLGVPGVGVPGVGVPGVGVPGVGVPGLGVPGVGVPGVGVPGVGVPGVGVPGLGVPGVGVPGVGVPGVGVPGVGVPGLGVPGVGVPGVGVPGVGVPGVGVPGLGVPGVGVPGVGDYKDDDDK
% inhibition of NE near the IC50 of the dual inhibitor (neutrophil elastase): 8.4% | IC50 of MMP-2 inhibition (kinetic colorimetric substrate assay) [1]: 50 µg/mL

B2: PMPD2-L10FLAG-APP-IP (designed binder)
chain: EEKCTPGQVKQQDCNTCTCTPTGVWGCTLMGCQPAVPGVGVPGVGVPGLGVPGVGVPGVGVPGVGVPGVGVPGLGVPGVGVPGVGVPGVGVPGVGVPGLGVPGVGVPGVGVPGVGVPGVGVPGLGVPGVGVPGVGVPGVGVPGVGVPGLGVPGVGVPGVGVPGVGVPGVGVPGLGVPGVGVPGVGVPGVGVPGVGVPGLGVPGVGVPGVGVPGVGVPGVGVPGLGVPGVGVPGVGVPGVGVPGVGVPGLGVPGVGVPGVGVPGVGVPGVGVPGLGVPGVGVPGVGDYKDDDDKISYGNDALMP
IC50 of NE inhibition (kinetic colorimetric substrate assay) (neutrophil elastase): 0.00085 µg/mL | IC50 of MMP-2 inhibition (kinetic colorimetric substrate assay) [1]: 40 µg/mL

B3: PMPD2-L10FLAG (designed binder)
chain: EEKCTPGQVKQQDCNTCTCTPTGVWGCTLMGCQPAVPGVGVPGVGVPGLGVPGVGVPGVGVPGVGVPGVGVPGLGVPGVGVPGVGVPGVGVPGVGVPGLGVPGVGVPGVGVPGVGVPGVGVPGLGVPGVGVPGVGVPGVGVPGVGVPGLGVPGVGVPGVGVPGVGVPGVGVPGLGVPGVGVPGVGVPGVGVPGVGVPGLGVPGVGVPGVGVPGVGVPGVGVPGLGVPGVGVPGVGVPGVGVPGVGVPGLGVPGVGVPGVGVPGVGVPGVGVPGLGVPGVGVPGVGDYKDDDDK
IC50 of NE inhibition (kinetic colorimetric substrate assay) (neutrophil elastase): 0.00708 µg/mL
